# Test: soluble on expression in E. coli; label from the status in PepcDB or PDB records
row,Sequence,soluble on expression in E. coli
1,MESSVDEEALHQLYLWVDNIPLSRPKRNLSRDFSDGVLVAELIKFYFPKMVEMHNYVPANSLQQKLSNWGHLNRKVLNKLNFSVPDDVMRKIAQCSPGVVELVLIPLRQRLEERQRRQKLGVGSLQELAPQDSSGYMDMGLPQKVRGEGAPALGEQLREGRPLASRPPGYNQALQGDPSFVLQIAEKEQELLASQETVQVLQMKVKRLEHLLQLKNVRIDDLSRRLQQAERKQR,soluble
2,MSLIIKKLKQSHSVKILCEVFNVHRSSYHYWLKRPALINAETIKLRSLISEAHAASNGSAGARTIADIVTNQGVKLSRYRATKLMRTLGLVSCQEPKHRYRKASQEHIDVPNHLSRQFAVTAPNEVWAGDVTYIWTGNRWMYLAVVIDLFARKVIGWSMSLSPDSRLTGKALSMAYESRGKPKGVMFHSDQGSHYTSRKYRQLLWRFQIKQSLSRRGNCWDNAPIERFFRSLKTEWVPTVGYRSFAEAQQEITRYIIGYYCQLRPHQYNGGLTPNESERLYWENSKTVANFSEGHHHHHH,not soluble
3,MPELAISTDKVAFLIEKAREFDVKEGESDADSGSNGADDDMVDVLEDTGDDPVVQEISGFIAAMTEEEQIDLVALMRLGRGDGSIEEWDDLRREAAEGRNGRTARYLLGEPLLGDYLADGLDQFGLSWSDERTTPVV,not soluble
4,MGSDKIHHHHHHMIRKNHKPAFCDENPIDCHFDVKSYPAGTTVHNNDTNIIYLIFCMKGHARITSTFFHDEILCAGEVMFVPHGSEYSGVALSDVTLLVHKFNNTVCRAENCILSYLYSHKNIDSKIYCCQRRT,not soluble
5,MGSDKIHHHHHHMAHPPQIRIPATYLRGGTSKGVFFRLEDLPESCRVPGEARDRLFMRVIGSPDPYAAHIDGMGGATSSTSKCVILSKSSQPGHDVDYLYGQVSIDKPFVDWSGNCGNLSTGAGAFALHAGLVDPARIPEDGICEVRIWQANIGKTIIAHVPVSGGQVQETGDFELDGVTFPAAEIVLEFLDPSDDGEDGGAIFPTGNLVDDLEVPGVGTFKATMINAGIPTVFVNAEEIGYRGTELREEINGDPQQLARFERIRVAGALRMGLIKTPEEAATRQHTPKIAFVAPPRDYRTASGKLVAAGDIDLLVRALSMGKLHHAMMGTAAVAIGTAAAIPGTLVNLAAGGGERSAVRFGHPSGTLRVGAEASQANGEWTVTKAIMSRSARILMEGWVRVPGDAF,not soluble
6,MRPSAIVLAGGKEAWAERFGVGSKALVPYRGRPMVEWVLEALYAAGLSPVYVGENPGLVPAPALTLPDRGGLLENLEQALEHVEGRVLVATGDIPHLTEEAVRFVLDKAPEAALVYPIVPKEAVEARFPRTKRTYARLREGTFTGGNLLLLDKSLFRKALPLARRVVALRKRPLALARLVGWDVLLKLLLGRLSLAEVEARAQRILGVEARALVTPYPEVGVDVDREEDLVS,soluble
7,MTVRDKREKMTATREEFADAQQEFAAYAADFAADIETKRDVSSLLDAIDALRAEIEETGDAFDAYNQEFAAEVSHLQTEIGEQREALREMRDIFDAYAETFESDVEAKQDVSDLLAAIEDLRAEMDTTHEAFDAYTNEFVTDVAALRDVSDLLAAIEELQLEFGAVQAEFDDYTDDFDADIERFRNAVAEQRDAVAEYREEFHGVEVQAMLNAIADFQQEIDDFRAEFETTEESFDAFARDFYGAEASDSGDALETEAEAPDAGVPEQPAEESVETENEEAELEVVETETDTEDTDTGSIKEVEEELIIEEEIDTEDTREAENAVEEDEETEADEDAPEGMIQCLVCGEYYQAITEPHLQTHDMTIQEYREEYGEDMPLRPDDKA,not soluble
8,MSDKNQIAARASLIEQLMSKRNFEDLGNHLTELETIYVTKEHLQETDVVRAVYRVLKNCPSVALKKKAKCLLSKWKAVYKQTHSKARNSPKLFPVRGNKEENSGPSHDPSQNETLGICSSNSLSSQDVAKLSEMIVPENRAIQLKPKEEHFGDGDPESTGKRSSELLDPTTPMRTKCIELLYAALTSSSTDQPKADLWQNFAREIEEHVFTLYSKNIKKYKTCIRSKVANLKNPRNSHLQQNLLSGTTSPREFAEMTVMEMANKELKQLRASYTESCIQEHYLPQVIDGTQTNKIKCRRCEKYNCKVTVIDRGTLFLPSWVRNSNPDEQMMTYVICNECGEQWYHSKWVCW,soluble
9,AVSKVYARSVYDSRGNPTVEVELTTEKGVFRSIVPSGASTGVHEALEMRDGDKSKWMGKGVLHAVKNVNDVIAPAFVKADIDVKDQKAVDDFLISLDGTANKSKLGANAILGVSLAASRAAAAEKDVPLYKHLADLSKSKTSPYVLPVPFLNVLNGGSHAGGALALQEFMIAPTGAKTFAEALRIGSEVYHNLKSLTKKRYGASAGNVGDEGGVAPNIQTAEEALDLIVDAIKAAGHDGKVKIGLDCASSEFFKDGKYDLDFKNPNSDKSKWLTGPQLADLYHSLMKRYPIVSIEDPFAEDDWEAWSHFFKTAGIQIVADDLTVTNPKRIATAIEKKAADALLLKVNQIGTLSESIKAAQDSFAAGWGVMVSHRSGETEDTFIADLVVGLRTGQIKTGAPARSERLAKLNQLLRIEEELGDNAVFAGENFHHGDKL,soluble
10,MYDVTIIGAGVSSIFMAYSLAKSNKKVLILDKGKALEDRHCPLDEGKVCNCTTCDKYFGFGGLGKSEGKFNYTNGFGGELEKKVGKEGFLQLMAEVDEILCQFGGSSVSKYSTENSSLTKRAEACGLQMLTTEVRHLGTTLSSNIFQQLYEFLLTKIKIQFHIDVQHILKQEDHFTIDTNQGTVQTKQLVFATGRSGADWLKEMCSSLNISQEQTRVDLGIRVEMKEHQLRSILKDTFETKLSYQGEHFTATTYCMNPKGRIIRKYEEGLVMPDGQNFREQGTGTSNLNFTLFIPSYFPTLKEANVYASSIIKGINQGRDRIVIQRLEDLLKKQPTAENSMEHSRIQPTLQGDYGDLNQEIPQLYIEGLKEFLLRLEQFIQEPIDQHTLLYGIDGKFYAPTIKINNHFETSIHGLFLIGDCSGVTHSLSQAAASGLYVGKYLSDILEHHHHHH,soluble
11,MLNLSSNQAAAVTVSETAELPEALEQLGLSNSRPVLVIVGGASQTSEADFLRIQSLFVEVLAPIAQSLGAYVVDGGTDAGVMRLMGDARSQINGQFPLIGVAPTAKVILPNQTTILADDATPLEPHHSHFVLIPGSKWGDESPWIVKVATLLANGLPSITVLINGGEISFLEHHHHHH,soluble
12,SGDVLWDIPTPKIIEECEHLEDGIYGIFQSTFLGASQRGVGVAQGGVFHTMWHVTRGAFLVRNGKKLIPSWASVKEDLVAYGGSWKLEGRWDGEEEVQLIAAVPGKNVVNVQTKPSLFKVRNGGEIGAVALDYPSGTSGSPIVNRNGEVIGLYGNGILVGDNSFVSAISQTEVKEEGKEELQEIPTMLKKGMTTVLDFHPGAGKTRRFLPQILAECARRRLRTLVLAPTRVVLSEMKEAFHGLDVKFHTQAFSAHGSGREVIDAMCHATLTYRMLEPTRVVNWEVIIMDEAHFLDPASIAARGWAAHRARANESATILMTATPPGTSDEFPHSNGEIEDVQTDIPSEPWNTGHDWILADKRPTAWFLPSIRAANVMAASLRKAGKSVVVLNRKTFEREYPTIKQKKPDFILATDIAEMGANLCVERVLDCRTAFKPVLVDEGRKVAIKGPLRISASSAAQRRGRIGRNPNRDGDSYYYSEPTSENNAHHVCWLEASMLLDNMEVRGGMVAPLYGVEGTKTPVSPGEMRLRDDQRKVFRELVRNCDLPVWLSWQVAKAGLKTNDRKWCFEGPEEHEILNDSGETVKCRAPGGAKKPLRPRWCDERVSSDQSALSEFIKFAEGRR,soluble
13,MTKISKIIDELNNQQADAAWITTPLNVYYFTGYRSEPHERLFALLIKKDGKQVLFCPKMEVEEVKASPFTGEIVGYLDTENPFSLYPQTINKLLIESEHLTVARQKQLISGFNVNSFGDVDLTIKQLRNIKSEDEISKIRKAAELADKCIEIGVSYLKEGVTECEVVNHIEQTIKQYGVNEMSFDTMVLFGDHAASPHGTPGDRRLKSNEYVLFDLGVIYEHYCSDMTRTIKFGEPSKEAQEIYNIVLEAETSAIQAIKPGIPLKDIDHIARNIISEKGYGEYFPHRLGHGLGLQEHEYQDVSSTNSNLLEAGMVITIEPGIYVPGVAGVRIEDDILVTNEGYEVLTHYEK,not soluble
14,MSLVPHHQPCPPASSLSAGPRGGVIMLILKNVTAVQLHPAKVQEGVDIAIENDVIVAIGDALTQRYPDASYKEMHGRIVMPGIVCSHNHFYSGLSRGIMANIAPSPDFISTLKNLWWRLDRALDEESLYYSGLICSLEAIKSGCTSVIDHHASPAYIGGSLSTLRDAFLKVGLRAMTCFETTDRNNGIKELQEGVEENIRFARQIDEAKKAATEPYLVEAHIGAHAPFTVPDAGLEMLREAVNATGRGLHIHAAEDLYDVSYSHHWYGKDLLARLAQFDLIDSKTLVAHGLYLSKDDIALLNQRDAFLVHNARSNMNNHVGYNHHLSDIRNLALGTDGIGSDMFEEMKFAFFKHRDAGGPLWPDSFAKALTNGNELMSRNFGAKFGLLEAGYKADLTICDYNSPTPLLADNIAGHIAFGMGSGSVHSVMVNGVMVYEDRQFNFDCDSIYAQARKAAASMWRRMDALAEGHHHHHH,soluble
15,MKDELIKKLSRPEWDFQYDSEKEVLRIEQKDSKKGINVSLPGVVAKWEVNKEKAIEEVAYYVQEALIAMHKEENSGAKILPVIRSTSFPKQAEEGNPFIMTDHTAETRIYYALDSNKTYRLIDERLLQKLELTEQQVREMALFNARSLGYEFKQDTVAGNTFYFLNTNDGYDATRILNESLLQSMREKISGDMVVAVPHQDVLIIADIVNEIGYDIIAQMTMKFFAEGHVPITSLSFVYEDGEFEPIFILAKNRKKTDGKEKG,not soluble
16,MSLGETTNLTFLRTDGQNIVTGTGEIFHIRGVTLTNNFWGNWVNGESEKLQSQGMDPIIRPLVQDAWVLTDDDFERIKDLGCNTVLYDINYQLFAEDNPNREENLKKLKEHIRRFSSMDIYTAVMLMAPPGLDSINDAYEKYKHGSERIKSVFEDDTYYEQWVEMWKYLAEELKDFKGVAGYGLINQPRAPSESEGGIGIFRERLNNVCREIRKIDKNHIIFVPEYNSREANPGESYWNEKTNSYVIDNGEQGIIWERGLVKVDSSNVVYLFHFFEPYNFVNDGVGDFDAESLEAQVRKRYEWAKNVGRAPLLTEYGISRVNSVDKRVQWLETVHDIFDKYGISASYFQYKNAVGAFINVKTGFNALYGEYVSWDSEIGLNPFYFVNEHVATSAKENHFDEALKEYYLKGKNLKKISILDNQPILETLQNFWKEGHHHHHH,soluble
17,MIRLTELKLPLNHEEGALLDAIAAKLKIPAQQVLSFTLFRRGYDARKKSDIQLIYTVDVEVANPEKLLAKFSKDQHVRPTPDMSYKFVAKAPENLPERPLVIGFGPCGLFAGLVLAQMGFNPIIVERGKEVRERTKDTFGFWRKRTLNTESNVQFGEGGAGTFSDGKLYSQVKDPNFYGRKVITEFVEAGAPEEILYVSKPHIGTFKLVTMIEKMRAKIIELGGEIRFSTRVDDIHMQDGQITGVILSNGEEIQSRHVVLAVGHSARDTFEMLHARGVYMEAKPFSVGFRIEHKQSMIDEARFGPSAGHPILGAADYKLVHHCKNGRTVYSFCMCPGGTVVAATSEEGRVVTNGMSQYSRAERNANSAIVVGISPEQDYPGDPLAGIRLQRELETNAYKLGGETYDAPAQKIGDFLKGRNPSELGDVQPSFTPGIKLTDLSKALPAFAVEAIREAIPEFDRQIKGFASEDGLLTGVETRTSSPVCIKRGKDFQSINLKGFYPAGEGAGYAGGILSAGIDGIKVAEAVARDMMARFAGELEHHHHHH,soluble

# Source: the DeepSol protein solubility set
